Measurements as given in the supplement of paper PMC10567573.

B1: ADAMTS4 (parent)
chain: SFRKFRYGYNNVVTIPAGATHILV

Variants of: B1
Experiment: protein stability index of a GFP-peptide fusion (GPS, HEK-293T) (PSI 1-6); higher = more stable
Settings: c terminus: a fixed tail appended
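Note: lentivirally expressed fusions sorted by FACS into six bins by GFP to DsRed ratio, PSI derived from sequencing read proportions per bin multiplied by bin number.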

Variant | protein stability index
SFRKFRYFYNNVVTIPAGATHILV [G8F] | 2.48
SFRKFRYVYNNVVTIPAGATHILV [G8V] | 2.24
SFRKFRYQYNNVVTIPAGATHILV [G8Q] | 2.77
SFRKFRYAYNNVVTIPAGATHILV [G8A] | 2.21
SFRKFRYTYNNVVTIPAGATHILV [G8T] | 2.71
SFRKFRYMYNNVVTIPAGATHILV [G8M] | 2.79
SFRKFRYCYNNVVTIPAGATHILV [G8C] | 2.46
SFRKFRYSYNNVVTIPAGATHILV [G8S] | 3.58
SFRKFRYYYNNVVTIPAGATHILV [G8Y] | 1.51
SFRKFRYPYNNVVTIPAGATHILV [G8P] | 2.38
SFRKFRYKYNNVVTIPAGATHILV [G8K] | 2.4
SFRKFRYHYNNVVTIPAGATHILV [G8H] | 3.15
SFRKFRYIYNNVVTIPAGATHILV [G8I] | 4.84
SFRKFRYNYNNVVTIPAGATHILV [G8N] | 3.3
SFRKFRYEYNNVVTIPAGATHILV [G8E] | 2.1
SFRKFRYWYNNVVTIPAGATHILV [G8W] | 3.33
SFRKFRYRYNNVVTIPAGATHILV [G8R] | 2.96
SFRKFRYLYNNVVTIPAGATHILV [G8L] | 2.38
SFRKFRYDYNNVVTIPAGATHILV [G8D] | 2.5
SKRKFRYGYNNVVTIPAGATHILV [F2K] | 1.9
SMRKFRYGYNNVVTIPAGATHILV [F2M] | 2.96
SPRKFRYGYNNVVTIPAGATHILV [F2P] | 2.15
SQRKFRYGYNNVVTIPAGATHILV [F2Q] | 2.91
SARKFRYGYNNVVTIPAGATHILV [F2A] | 1.94

Variant | protein stability index
SYRKFRYGYNNVVTIPAGATHILV [F2Y] | 1.8
SNRKFRYGYNNVVTIPAGATHILV [F2N] | 1.76
SHRKFRYGYNNVVTIPAGATHILV [F2H] | 1.68
SLRKFRYGYNNVVTIPAGATHILV [F2L] | 1.75
SDRKFRYGYNNVVTIPAGATHILV [F2D] | 2.13
SCRKFRYGYNNVVTIPAGATHILV [F2C] | 3.07
SVRKFRYGYNNVVTIPAGATHILV [F2V] | 1.99
SWRKFRYGYNNVVTIPAGATHILV [F2W] | 2.38
SIRKFRYGYNNVVTIPAGATHILV [F2I] | 2.03
SSRKFRYGYNNVVTIPAGATHILV [F2S] | 2.19
SERKFRYGYNNVVTIPAGATHILV [F2E] | 1.79
SGRKFRYGYNNVVTIPAGATHILV [F2G] | 2.97
STRKFRYGYNNVVTIPAGATHILV [F2T] | 1.62
SRRKFRYGYNNVVTIPAGATHILV [F2R] | 2.18
SFRKFREGYNNVVTIPAGATHILV [Y7E] | 2.63
SFRKFRSGYNNVVTIPAGATHILV [Y7S] | 2.19
SFRKFRVGYNNVVTIPAGATHILV [Y7V] | 2.81
SFRKFRPGYNNVVTIPAGATHILV [Y7P] | 2.83
SFRKFRNGYNNVVTIPAGATHILV [Y7N] | 2.43
SFRKFRQGYNNVVTIPAGATHILV [Y7Q] | 2.24
SFRKFRMGYNNVVTIPAGATHILV [Y7M] | 3.02
SFRKFRDGYNNVVTIPAGATHILV [Y7D] | 2.07
SFRKFRCGYNNVVTIPAGATHILV [Y7C] | 2.84
SFRKFRWGYNNVVTIPAGATHILV [Y7W] | 2

Variant | protein stability index
SFRKFRHGYNNVVTIPAGATHILV [Y7H] | 1.77
SFRKFRLGYNNVVTIPAGATHILV [Y7L] | 2.46
SFRKFRIGYNNVVTIPAGATHILV [Y7I] | 2.89
SFRKFRFGYNNVVTIPAGATHILV [Y7F] | 3.04
SFRKFRRGYNNVVTIPAGATHILV [Y7R] | 2.8
SFRKFRKGYNNVVTIPAGATHILV [Y7K] | 2.92
SFRKFRAGYNNVVTIPAGATHILV [Y7A] | 3.52
SFRKFRTGYNNVVTIPAGATHILV [Y7T] | 3.1
SFRKFFYGYNNVVTIPAGATHILV [R6F] | 3.68
SFRKFTYGYNNVVTIPAGATHILV [R6T] | 2.37
SFRKFCYGYNNVVTIPAGATHILV [R6C] | 4.22
SFRKFVYGYNNVVTIPAGATHILV [R6V] | 2.5
SFRKFYYGYNNVVTIPAGATHILV [R6Y] | 2.15
SFRKFKYGYNNVVTIPAGATHILV [R6K] | 3
SFRKFDYGYNNVVTIPAGATHILV [R6D] | 2.22
SFRKFNYGYNNVVTIPAGATHILV [R6N] | 2.5
SFRKFPYGYNNVVTIPAGATHILV [R6P] | 3.56
SFRKFWYGYNNVVTIPAGATHILV [R6W] | 2.86
SFRKFLYGYNNVVTIPAGATHILV [R6L] | 3.25
SFRKFMYGYNNVVTIPAGATHILV [R6M] | 3.49
SFRKFSYGYNNVVTIPAGATHILV [R6S] | 2.95
SFRKFHYGYNNVVTIPAGATHILV [R6H] | 2.76
SFRKFIYGYNNVVTIPAGATHILV [R6I] | 2.3
SFRKFAYGYNNVVTIPAGATHILV [R6A] | 1.91

Variant | protein stability index
SFRKFQYGYNNVVTIPAGATHILV [R6Q] | 3.44
SFRKFGYGYNNVVTIPAGATHILV [R6G] | 2.57
RFRKFRYGYNNVVTIPAGATHILV [S1R] | 2.79
IFRKFRYGYNNVVTIPAGATHILV [S1I] | 2.62
FFRKFRYGYNNVVTIPAGATHILV [S1F] | 2.34
KFRKFRYGYNNVVTIPAGATHILV [S1K] | 2.07
CFRKFRYGYNNVVTIPAGATHILV [S1C] | 2.8
LFRKFRYGYNNVVTIPAGATHILV [S1L] | 2.08
HFRKFRYGYNNVVTIPAGATHILV [S1H] | 1.73
QFRKFRYGYNNVVTIPAGATHILV [S1Q] | 2.67
EFRKFRYGYNNVVTIPAGATHILV [S1E] | 3.35
VFRKFRYGYNNVVTIPAGATHILV [S1V] | 2.17
MFRKFRYGYNNVVTIPAGATHILV [S1M] | 2.99
TFRKFRYGYNNVVTIPAGATHILV [S1T] | 1.61
YFRKFRYGYNNVVTIPAGATHILV [S1Y] | 2.22
NFRKFRYGYNNVVTIPAGATHILV [S1N] | 2
AFRKFRYGYNNVVTIPAGATHILV [S1A] | 4.18
PFRKFRYGYNNVVTIPAGATHILV [S1P] | 2.22
DFRKFRYGYNNVVTIPAGATHILV [S1D] | 2.25
SFRKFRYGANNVVTIPAGATHILV [Y9A] | 3.15
SFRKNRYGYNNVVTIPAGATHILV [F5N] | 1.84
SFRKTRYGYNNVVTIPAGATHILV [F5T] | 2.98
